Experimental data published in the Immune Epitope Database (IEDB).

How the values were obtained:
Assay in all cases: IEDB peptide-MHC binding, purified MHC/competitive/radioactivity; filed as Kd, often an IC50 or EC50 that approximates it; ≥ and ≤ were set here for values at or beyond the usual limits of such assays
[1] = molecular target: HLA-A*68:01
[2] = molecular target: HLA-A*11:01
[3] = molecular target: HLA-A*31:01
[4] = molecular target: HLA-A*33:01
[5] = molecular target: HLA-A*03:01
[6] = source organism: Vaccinia virus WR
[7] = source organism: Dengue virus 4 Philippines/H241/1956
[8] = source organism: SARS coronavirus Tor2
[9] = source organism: Dengue virus 1 Brazil/97-11/1997
[10] = source organism: Dengue virus 2 Jamaica/1409/1983
[11] = source organism: Mammarenavirus machupoense

Sequence	Kd [1, 6]	Kd [2, 6]	Kd [3, 6]	Kd [4, 6]	Kd [5, 6]	other results
AALFMYYAKR	33.1 nM	178 nM	16.8 nM	837 nM	312 nM	–
AIKILTGFRK	–	–	–	–	–	Kd [2, 7]: 1760 nM; Kd [5, 7]: 103 nM
AITPTIEDDK	6640 nM	115 nM	≥ 47900 nM	≥ 42600 nM	487 nM	–
ALLSTDGNK	–	–	–	–	–	Kd [1, 8]: ≥ 23700 nM; Kd [2, 8]: 494 nM; Kd [3, 8]: 10200 nM; Kd [4, 8]: ≥ 77700 nM; Kd [5, 8]: 52.5 nM
ATKIIALNK	–	–	–	–	–	Kd [1, 8]: 15900 nM; Kd [2, 8]: 334 nM; Kd [3, 8]: 840 nM; Kd [4, 8]: ≥ 77700 nM; Kd [5, 8]: 1360 nM
ATMLEYVRY	≥ 29400 nM	23.5 nM	3410 nM	≥ 77700 nM	1700 nM	–
ATTVITPMMR	–	–	–	–	–	Kd [1, 9]: 368 nM; Kd [2, 9]: 141 nM; Kd [3, 9]: 125 nM
AVHDFFKFR	–	–	–	–	–	Kd [1, 8]: 11.3 nM; Kd [2, 8]: 7.56 nM; Kd [3, 8]: 4.9 nM; Kd [4, 8]: 273 nM; Kd [5, 8]: 7140 nM
AVILQNAWK	–	–	–	–	–	Kd [2, 10]: 128 nM
AVLMHKGKR	–	–	–	–	–	Kd [3, 10]: 64.7 nM
CVDIPGIPK	–	–	–	–	–	Kd [1, 8]: 102 nM; Kd [2, 8]: 19.9 nM; Kd [3, 8]: ≥ 10000 nM; Kd [4, 8]: ≥ 37900 nM; Kd [5, 8]: 149 nM
DFYDFAVSK	–	–	–	–	–	Kd [1, 8]: 56.9 nM; Kd [2, 8]: 8940 nM; Kd [3, 8]: 12400 nM; Kd [4, 8]: 9.36 nM; Kd [5, 8]: 4110 nM
DIICEDAMY	4550 nM	≥ 77900 nM	≥ 77900 nM	≥ 20200 nM	≥ 78000 nM	–
DLIVTFRER	19.8 nM	8140 nM	509 nM	14.8 nM	12700 nM	–
DSIPISELSR	12.3 nM	986 nM	4140 nM	25.5 nM	≥ 44900 nM	–
EIITGNKVK	233 nM	1200 nM	≥ 77900 nM	≥ 77700 nM	≥ 78000 nM	–
EMVDELVTRK	1210 nM	8710 nM	≥ 70000 nM	≥ 70000 nM	≥ 70100 nM	–
EWMLIAAKMK	–	–	–	–	–	Kd [1, 11]: 3530 nM; Kd [2, 11]: ≥ 24100 nM; Kd [3, 11]: 1260 nM; Kd [4, 11]: 49 nM; Kd [5, 11]: 5950 nM
FTDISMSLYK	24.9 nM	8.84 nM	9320 nM	4210 nM	55.9 nM	–
